In the supplement of paper PMC9170038:

Legend:
MS2 coat protein [1] = assay: apparent KD of MS2 coat protein, switch OFF state (with FMN for OFF switches, without FMN for ON switches); designed switch direction (-1 OFF switch, 1 ON switch): -1; higher = weaker reporter binding; details: FMN input: 0 or 200 uM; Eterna round: R93 (includes R88 designs)
How it was run: (§1)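 Values are apparent KD, taken as the median for each design of fits to normalised binding curves from individual clusters. The designed RNA switches were transcribed on-chip from Illumina sequencing clusters and exposed to SNAP-549-labelled MS2 coat protein at twofold increasing amounts from 0.7 or 1.5 nM to 3 µM. Titration used 100 mM Tris-HCl pH 7.5, 80 mM KCl and 4 mM MgCl2, without or with constant ligand.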

MS2 coat protein [2] = assay: apparent KD of MS2 coat protein, switch ON state; designed switch direction (-1 OFF switch, 1 ON switch): -1; higher = weaker reporter binding; details: FMN input: 0 or 200 uM; Eterna round: R93 (includes R88 designs)
How it was run: as §1

Sequence	apparent KD of MS2 coat protein (MS2 coat protein [1])	apparent KD of MS2 coat protein (MS2 coat protein [2])
AAAAAGGAAGGAUAUACAUGAGGAUCACCCAUGUAAAAAAAAAAAAAGGGAAAAAAAAGUAGAAGGUCCAAAAA [Montuemsaf Djedankhre]	40.9 nM	33 nM
AAAAAGGAAGGAUAUACGAACAUGUCAAAAGACGUGAAGGGACAUGAGGAUCACCCAUGUAGAAGGUCCAAAAA [JL Half Open 23]	99.6 nM	83.4 nM
AAAAAGGAAGGAUAUACGAACAUGUCAAAAGACGUGAAGGGACAUGAGGAUCACCCAUGUAGAAGGUUCAAAAA [JL Half Open 24]	18.5 nM	38.7 nM
AAAAAGGCAGGAUAUACAAAAAAAAAAAAAAAAAAGGAGGGACAUGAGGAUCACCCAUGUAGAAGGGCCAAAAA [Kai Theodor Erikson]	121 nM	97.4 nM
AAAAAGGCAGGAUAUACAUGAGGAUCACCCAUGUAAAGAAAAGAAAGAUCCAAAGAAAGUAGAAGGGCCAAAAA [Ex3 sub 3]	170 nM	48.8 nM
AAAAAGGCAGGAUAUACAUGAGGAUCACCCAUGUGCAAAAAAAAAAAAAAAAAAACAUGUAGAAGGGCCGAAAA [Skynet (1?)]	86.3 nM	45.2 nM
AAAAAGGCAGGAUAUACGAGUCAAAGAAAAGACAAAAGGAGACAUGAGGAUCACCCAUGUAGAAGGGCCAAAAA [Fiskers exclusion D2 62% 5]	48.8 nM	36.8 nM
AAAAAGGGAGGAUAUACAACACAGACAGAACAACAAACACAACAUGAGGAUCACCCAUGUAGAAGGCCCAAAAA [Default title]	35.4 nM	28.2 nM
AAAAAGGGAGGAUAUACAGGAGGUCAAAAAAAAAAAAAAAAACAUGAGGAUCACCCAUGUAGAAGGCUUAAAAA [Ecls2-III]	27.3 nM	26.7 nM
AAAAAGGGAGGAUAUACAUGAGGAUCACCCAUGUAAAAAAAAAAAAAAGGGAGGGAAGGUAGAAGGCCCAAAAA [Excls3-II]	52.5 nM	39.6 nM
AAAAAGGGAGGAUAUACAUGAGGAUCACCCAUGUAGCAGACGAAAAAGAGUCUGUAAUGUAGAAGGCCCAAAAA [65%, Moding Exclusion3-cac2, 4]	32.2 nM	16.2 nM
AAAAAGGGAGGAUAUACGAAACAGGGAAACCUGAAAAAGGGACAUGAGGAUCACCCAUGUAGAAGGCCCAAGAA [Clint Eastwood 64% 5]	268 nM	40.2 nM
AAAAAGGGAGGAUAUGCAAAGGGAAAGGGAAAGGGAAAGGGACAUGAGGAUCACCCAUGUAGAAGGCUCAAAAA [scarecrow2]	34 nM	56.1 nM
AAAAAGGUAGGAUAUGCUAAAUAACAUGUUGAAUAAAUAAAACAUGAGGAUCACCCAUGUAGAAGGACCAAAAA [Ex 2 Tesla 2]	58.1 nM	54 nM
AAAAAGUAAGGAUAUACAAAAGAAAACACAAAAAAAAAAAAACAUGAGGAUCACCCAUGUAGAAGGUACAAAAA [Ex2 Malc#1]	19.3 nM	27.3 nM
AAAAAGUAAGGAUAUACAAGAGAAAACACAAAAAAAAAAAAACAUGAGGAUCACCCAUGUAGAAGGUACAAAAA [Diamond 82]	24.6 nM	27.5 nM
AAAAAGUAAGGAUAUAGCAAAGGUCACGAAAGUGACAAAGGCUAGAAGGUACAUGAGGAUCACCCAUGUCCAAG [Mat - Exclusion 4 - Eli mod - D100]	16.6 nM	30.8 nM
AAAAAGUCAGGAUAUACAAAAGUGCGAAAGCACAAAAUGGGACAUGAGGAUCACCCAUGUAGAAGGGACAAGAA [JL In the Red 01 (Mod)]	472 nM	148 nM
AAAAAGUCAGGAUAUACAUGAGGAUCACCCAUGUGAAAGAACGAUUAACGAAAAGCAAGUAGAAGGGACAAAAA [Ruby 79]	23.7 nM	22.1 nM
AAAAAGUCAGGAUAUACAUGAGGAUCACCCAUGUGAAAGAACGAUUAACGACCAGCAAGUAGAAGGGACAAAAA [Ruby 80]	20.8 nM	22 nM
AAAAAGUCAGGAUAUACGAAAGUGCGAAAGCACAAAAAGGGACAUGAGGAUCACCCAUGUAGAAGGGACAAGAA [Married to this design, 61% 3]	50.4 nM	45.2 nM
AAAAAGUCAGGAUAUGUAGCAAAAAGUGAUCCAAAAAAGCUACAGAAGGGACAUGAGGAUCACCCAUGUAAAAA [Ex4: 931]	98.2 nM	86.5 nM
AAAAAGUCAGGAUAUGUAGCAUGAUACGAAAGUAUCAUGCUACAGAAGGGACAUGAGGAUCACCCAUGUGAUCA [Ex4: 938]	33.2 nM	365 nM

Sequence	apparent KD of MS2 coat protein (MS2 coat protein [1])	apparent KD of MS2 coat protein (MS2 coat protein [2])
AAAAAGUCAGGAUAUUCGGAAGGGAAAGCGCAAACCCAACCGAAGAAGGGACAUGAGGAUCACCCAUGUAAAAA [Ecls4-III]	42.9 nM	49.6 nM
AAAAAGUCAGGAUAUUCGGAUAGGAAAACGAAAACCUAUCCGAAGAAGGGACAUGAGGAUCACCCAUGUAAAAA [Ecls4-II]	46.1 nM	48.9 nM
AAAAAGUGAGGAUAUACAUGAGGAUCACCCAUGUGAAGGGAAGAGAGAGAGAGAGAGAGUAGAAGGCACAAAAA [Default title]	96.3 nM	98.8 nM
AAAAAGUGAGGAUAUACAUGAGGAUCACCCAUGUGAUAAAAAAAAAGGGUGGAAGAAAGUAGAAGGCACCAAAA [Ex 3 May 49]	77.5 nM	108 nM
AAAAAGUGAGGAUAUACAUGAGGAUCACCCAUGUGUAUAAAAAAUUACACAAAAGAAAGUAGAAGGCACUAAAG [Mat - Exclusion 3 - Mayanna mod - D112]	30.8 nM	17 nM
AAAAAGUGAGGAUAUACGAAAAAAAAAAAAAAAAAAGGUGAACAUGAGGAUCACCCAUGUAGAAGGCACAAAAA [Black Design]	312 nM	102 nM
AAAAAGUGAGGAUAUACGCGAACAAAAAAAAAAAAGAAAGCGUAGAAGGCACAUGAGGAUCACCCAUGUCCAAA [Alfred 64% 4]	39 nM	28 nM
AAAAAGUGAGGAUAUACGCGAACAAAAAUAAAAAAGAAAGCGUAGAAGGCACAUGAGGAUCACCCAUGUCCAAA [Alfred 64% 5]	41.1 nM	27.7 nM
AAAAAGUGAGGAUAUACGUUAAAAAAAAAAAAAAAAAAGCGGUAGAAGGCACAUGAGGAUCACCCAUGUAAAAA [Ex4 Malc#3]	34.7 nM	57.7 nM
AAAAAGUGAGGAUAUAGCAAAGGUCACGAAAGUGACAAAGGCUAGAAGGCACAUGAGGAUCACCCAUGUAAAAA [Fiskers Exclusion 4 D2 63% 1]	34.9 nM	41.6 nM
AAAAAGUGAGGAUAUGCAGUGGCCUGUAGACGCAAGCACUUGUAGAAGGCACAUGAGGAUCACCCAUGUUUAAA [EX4 Malc#30]	28 nM	30.9 nM
AAAAAGUGAGGAUAUUCGGAUAGGAAAACGAAAACCUAUCCGAAGAAGGCACAUGAGGAUCACCCAUGUGGGAA [67% Ecls-II - Early G + late G segment 3]	75.9 nM	52.6 nM
AAAAAGUUAGGAUAUACAUGAGGAUCACCCAUGUACAUAUAUGGAGAAAAAAACAGUAGUAGAAGGGACAAAAA [EX2 Malc#12]	19.8 nM	20.6 nM
AAAAAUCGAGGAUAUACAUGAGGAUCACCCAUGUCAAAAAAUGACUACACAAAAGAAAGUAGAAGGCGAUAAAG [Mat - Exclusion 3 - Mayanna mod - D129]	36.6 nM	25 nM
AAAAAUGGAGGAUAUACAUGAGGAUCACCCAUGUGUGACUAUACUAAGCGCUCUUCAGGUAGAAGGCCAAAAAA [Gilly Gone Silly 17 - Jieux - Exclusion 3]	60.3 nM	43.8 nM
AAAAAUGGAGGAUAUACAUGAGGAUCACCCAUGUUAGACCUAAAAAAAGGGAAAGAAAGUAGAAGGCCAUAAAA [Ex 3 May 29]	20.6 nM	17.5 nM
AAAAAUUGAGGAUAUACGUACAUGUCAAAAGACGUGAAGGGACAUGAGGAUCACCCAUGUAGAAGGCGAAAGAA [JL Neck Breaker 13]	16 nM	37.1 nM
AAAACACAUGAGGAUCACCCAUGUGAGGAUAUGAACGAAAUAAAAUAAAAAUAAAAGUUCAGAAGGCACAAAAA [Mat - Exclusion 1 - Eli mod - D13]	36.6 nM	22.2 nM
AAAACACAUGAGGAUCACCCAUGUGAGGAUAUGCUAUGGAAAAUAAAAAUAAAACAUAGCAGAAGGCGCAGGAA [Denovo 20]	22.9 nM	29.8 nM
AAAACGGCAGGAUAUACAGAUGAGAACUAGACCGAAAAAAAACAUGAGGAUCACCCAUGUAGAAGGGCCAAAAA [Ex2 Malc#7]	36.8 nM	27.8 nM
AAAACUAGAGGAUAUACGUACAUGUCAAAAGACGUGAAGGGACAUGAGGAUCACCCAUGUAGAAGGCUAGAAAA [JL Stem Breaker 9]	104 nM	45.2 nM
AAAACUGGAGGAUAUACAUGAGGAUCACCCAUGUGUGGAUGAGCUGAGACGGCAUCACGUAGAAGGCCACAAAA [Gilly Gone Silly 39 - Jieux - Exclusion 3]	44 nM	33.2 nM
